Source: US8541373B2, “BChE albumin fusions for the treatment of cocaine abuse” (priority 2009, dated 2013)

Tested on: cocaine
Test: Plasma cocaine, benzoylecgonine and ecgonine methyl ester (LC-MS) and cocaine PK after IV cocaine post-AlbuBChE
Type: in vivo, cynomolgus monkeys
Conditions: for Ecgonine methyl ester plasma concentration (mean) / Mean benzoylecgonine plasma concentration / Mean cocaine plasma concentration / Mean benzoylecgonine AUC(0-t) / Mean cocaine AUC % Extrap / Mean cocaine AUC(0-t) / Mean cocaine AUC(0-∞) / Mean cocaine C0 / Mean cocaine CI / Mean cocaine Vss / Mean cocaine t½: 5 mg/kg IM
Experimental: Blood was placed into K2EDTA blood collection tubes with esterase inhibitor diisopropylfluorophosphate (DFP). Tubes were inverted several times and placed on wet ice upon collection. Samples were centrifuged at 2-8° C. within 45 minutes of collection. The resultant plasma was recovered and a single 200 μL aliquot of plasma was placed into polypropylene tubes. Plasma samples were frozen over dry ice and stored at −75±15° C.
The following outline describes the LC-MS-based assay employed for the measurement of cocaine in plasma samples. Prior to MS analysis, plasma samples, calibration standards and controls were extracted using supported liquid extraction (SLE-ISOLUTE, Biotage). Twenty-five microliters of samples (25 μL) received 150 μl of 5% Ammonium hydroxide and 25 μl internal standard solution (Cocaine-d3). After mixing and transfer to SLE plate, samples were eluted with methylene chloride and evaporated to dryness. After resuspension in 50 μl of reconstitution solution—5% ACM in 10 mM ammonium acetate in water, 10 μl was injected onto Thermo Hypercarb column at 0.5 ml/min. Mobile phase was biphasic. Mass spectrophotometric detection was performed using Api 4000, APCI positive interface and Multiple Reaction Monitoring (MRM). Plasma concentrations of cocaine, benzoylecgonine and ecgonine methyl ester were determined using this assay.
When the data permits, pharmacokinetic parameter values for cocaine and its metabolites were determined using plasma concentration-times profiles for individual animals at all the study days of cocaine administration. […] Specifically the model for non-compartmental analysis with IV bolus input for cocaine and extravascular input for the metabolites.

[1] = cocaine 1 mg/kg IV 48 hr post-AlbuBChE, 10 min after cocaine
[2] = cocaine 1 mg/kg IV 48 hr post-AlbuBChE, 15 min after cocaine
[3] = cocaine 1 mg/kg IV 48 hr post-AlbuBChE, 20 min after cocaine
[4] = cocaine 1 mg/kg IV 48 hr post-AlbuBChE, 30 min after cocaine
[5] = cocaine 1 mg/kg IV 48 hr post-AlbuBChE, 40 min after cocaine
[6] = cocaine 1 mg/kg IV 48 hr post-AlbuBChE, 60 min after cocaine
[7] = cocaine 1 mg/kg IV 96 hr post-AlbuBChE
[8] = cocaine 1 mg/kg IV 96 hr post-AlbuBChE, 5 min after cocaine
[9] = cocaine 1 mg/kg IV 96 hr post-AlbuBChE, 10 min after cocaine
[10] = cocaine 1 mg/kg IV 96 hr post-AlbuBChE, 15 min after cocaine
[11] = cocaine 1 mg/kg IV 96 hr post-AlbuBChE, 20 min after cocaine
[12] = cocaine 1 mg/kg IV 96 hr post-AlbuBChE, 30 min after cocaine
[13] = cocaine 1 mg/kg IV 96 hr post-AlbuBChE, 40 min after cocaine
[14] = cocaine 1 mg/kg IV 96 hr post-AlbuBChE, 60 min after cocaine
[15] = cocaine 1 mg/kg IV 120 hr post-AlbuBChE
[16] = cocaine 1 mg/kg IV 120 hr post-AlbuBChE, 5 min after cocaine
[17] = cocaine 1 mg/kg IV 120 hr post-AlbuBChE, 10 min after cocaine
[18] = cocaine 1 mg/kg IV 120 hr post-AlbuBChE, 15 min after cocaine
[19] = cocaine 1 mg/kg IV 120 hr post-AlbuBChE, 20 min after cocaine
[20] = cocaine 1 mg/kg IV 120 hr post-AlbuBChE, 30 min after cocaine
[21] = cocaine 1 mg/kg IV 120 hr post-AlbuBChE, 40 min after cocaine
[22] = cocaine 1 mg/kg IV 120 hr post-AlbuBChE, 60 min after cocaine
[23] = cocaine 1 mg/kg IV 240 hr post-AlbuBChE
[24] = cocaine 1 mg/kg IV 240 hr post-AlbuBChE, 5 min after cocaine
[25] = cocaine 1 mg/kg IV 240 hr post-AlbuBChE, 10 min after cocaine
[26] = cocaine 1 mg/kg IV 240 hr post-AlbuBChE, 15 min after cocaine
[27] = cocaine 1 mg/kg IV 240 hr post-AlbuBChE, 20 min after cocaine
[28] = cocaine 1 mg/kg IV 240 hr post-AlbuBChE, 30 min after cocaine
[29] = cocaine 1 mg/kg IV 240 hr post-AlbuBChE, 40 min after cocaine
[30] = cocaine 1 mg/kg IV 240 hr post-AlbuBChE, 60 min after cocaine

AlbuBChE
Ecgonine methyl ester plasma concentration (mean) [1]: 68.9 ng/mL
Mean benzoylecgonine plasma concentration [1]: 21.0 ng/mL
Mean cocaine plasma concentration [1]: 89.9 ng/mL
Ecgonine methyl ester plasma concentration (mean) [2]: 102 ng/mL
Mean benzoylecgonine plasma concentration [2]: 24.4 ng/mL
Mean cocaine plasma concentration [2]: 82.7 ng/mL
Ecgonine methyl ester plasma concentration (mean) [3]: 107 ng/mL
Mean benzoylecgonine plasma concentration [3]: 23.7 ng/mL
Mean cocaine plasma concentration [3]: 49.5 ng/mL
Ecgonine methyl ester plasma concentration (mean) [4]: 108 ng/mL
Mean benzoylecgonine plasma concentration [4]: 25.9 ng/mL
Mean cocaine plasma concentration [4]: 36.7 ng/mL
Ecgonine methyl ester plasma concentration (mean) [5]: 106 ng/mL
Mean benzoylecgonine plasma concentration [5]: 25.5 ng/mL
Mean cocaine plasma concentration [5]: 18.9 ng/mL
Ecgonine methyl ester plasma concentration (mean) [6]: 108 ng/mL
Mean benzoylecgonine plasma concentration [6]: 24.4 ng/mL
Mean cocaine plasma concentration [6]: 5.74 ng/mL
Mean benzoylecgonine AUC(0-t) [7]: 3222 ng·min/mL
Mean cocaine AUC % Extrap [7]: 14.2%
Mean cocaine AUC(0-t) [7]: 6624 ng·min/mL
Mean cocaine AUC(0-∞) [7]: 7729 ng·min/mL
Mean cocaine C0 [7]: 190 ng/mL
Mean cocaine CI [7]: 129 mL/min/kg
Mean cocaine Vss [7]: 4.111 L/kg
Mean cocaine t½ [7]: 21.3 min
Ecgonine methyl ester plasma concentration (mean) [8]: 100 ng/mL
Mean benzoylecgonine plasma concentration [8]: 44.2 ng/mL
Mean cocaine plasma concentration [8]: 176 ng/mL
Ecgonine methyl ester plasma concentration (mean) [9]: 60.9 ng/mL
Mean benzoylecgonine plasma concentration [9]: 43.5 ng/mL
Mean cocaine plasma concentration [9]: 166 ng/mL
Ecgonine methyl ester plasma concentration (mean) [10]: 82.2 ng/mL
Mean benzoylecgonine plasma concentration [10]: 49.7 ng/mL
Mean cocaine plasma concentration [10]: 174 ng/mL
Ecgonine methyl ester plasma concentration (mean) [11]: 104 ng/mL
Mean benzoylecgonine plasma concentration [11]: 51.1 ng/mL
Mean cocaine plasma concentration [11]: 136 ng/mL
Ecgonine methyl ester plasma concentration (mean) [12]: 111 ng/mL
Mean benzoylecgonine plasma concentration [12]: 56.1 ng/mL
Mean cocaine plasma concentration [12]: 99.0 ng/mL
Ecgonine methyl ester plasma concentration (mean) [13]: 126 ng/mL
Mean benzoylecgonine plasma concentration [13]: 57.7 ng/mL
Mean cocaine plasma concentration [13]: 80.6 ng/mL
Ecgonine methyl ester plasma concentration (mean) [14]: 127 ng/mL
Mean benzoylecgonine plasma concentration [14]: 60.5 ng/mL
Mean cocaine plasma concentration [14]: 35.2 ng/mL
Mean benzoylecgonine AUC(0-t) [15]: 3624 ng·min/mL
Mean cocaine AUC % Extrap [15]: 14.5%
Mean cocaine AUC(0-t) [15]: 9378 ng·min/mL
Mean cocaine AUC(0-∞) [15]: 11046 ng·min/mL
Mean cocaine C0 [15]: 411 ng/mL
Mean cocaine CI [15]: 93.0 mL/min/kg
Mean cocaine Vss [15]: 2.857 L/kg
Mean cocaine t½ [15]: 22.3 min
Ecgonine methyl ester plasma concentration (mean) [16]: 45.5 ng/mL
Mean benzoylecgonine plasma concentration [16]: 44.6 ng/mL
Mean cocaine plasma concentration [16]: 298 ng/mL
Ecgonine methyl ester plasma concentration (mean) [17]: 46.0 ng/mL
Mean benzoylecgonine plasma concentration [17]: 47.5 ng/mL
Mean cocaine plasma concentration [17]: 217 ng/mL
Ecgonine methyl ester plasma concentration (mean) [18]: 96.5 ng/mL
Mean benzoylecgonine plasma concentration [18]: 50.3 ng/mL
Mean cocaine plasma concentration [18]: 216 ng/mL
Ecgonine methyl ester plasma concentration (mean) [19]: 60.1 ng/mL
Mean benzoylecgonine plasma concentration [19]: 57.3 ng/mL
Mean cocaine plasma concentration [19]: 161 ng/mL
Ecgonine methyl ester plasma concentration (mean) [20]: 79.9 ng/mL
Mean benzoylecgonine plasma concentration [20]: 63.6 ng/mL
Mean cocaine plasma concentration [20]: 139 ng/mL
Ecgonine methyl ester plasma concentration (mean) [21]: 122 ng/mL
Mean benzoylecgonine plasma concentration [21]: 69.5 ng/mL
Mean cocaine plasma concentration [21]: 113 ng/mL
Ecgonine methyl ester plasma concentration (mean) [22]: 187 ng/mL
Mean benzoylecgonine plasma concentration [22]: 69.2 ng/mL
Mean cocaine plasma concentration [22]: 49.5 ng/mL
Mean benzoylecgonine AUC(0-t) [23]: 5088 ng·min/mL
Mean cocaine AUC % Extrap [23]: 29.2%
Mean cocaine AUC(0-t) [23]: 12952 ng·min/mL
Mean cocaine AUC(0-∞) [23]: 18578 ng·min/mL
Mean cocaine C0 [23]: 424 ng/mL
Mean cocaine CI [23]: 55.6 mL/min/kg
Mean cocaine Vss [23]: 2.637 L/kg
Mean cocaine t½ [23]: 33.8 min
Ecgonine methyl ester plasma concentration (mean) [24]: 127 ng/mL
Mean benzoylecgonine plasma concentration [24]: 44.9 ng/mL
Mean cocaine plasma concentration [24]: 346 ng/mL
Ecgonine methyl ester plasma concentration (mean) [25]: 26.1 ng/mL
Mean benzoylecgonine plasma concentration [25]: 56.4 ng/mL
Mean cocaine plasma concentration [25]: 283 ng/mL
Ecgonine methyl ester plasma concentration (mean) [26]: 30.7 ng/mL
Mean benzoylecgonine plasma concentration [26]: 71.9 ng/mL
Mean cocaine plasma concentration [26]: 283 ng/mL
Ecgonine methyl ester plasma concentration (mean) [27]: 35.1 ng/mL
Mean benzoylecgonine plasma concentration [27]: 83.4 ng/mL
Mean cocaine plasma concentration [27]: 226 ng/mL
Ecgonine methyl ester plasma concentration (mean) [28]: 49.6 ng/mL
Mean benzoylecgonine plasma concentration [28]: 88.4 ng/mL
Mean cocaine plasma concentration [28]: 211 ng/mL
Ecgonine methyl ester plasma concentration (mean) [29]: 53.1 ng/mL
Mean benzoylecgonine plasma concentration [29]: 101 ng/mL
Mean cocaine plasma concentration [29]: 161 ng/mL
Ecgonine methyl ester plasma concentration (mean) [30]: 58.0 ng/mL
Mean benzoylecgonine plasma concentration [30]: 108 ng/mL
Mean cocaine plasma concentration [30]: 111 ng/mL
AlbuBChE activity (cocaine concentrations vs Day 1 control) (240 hr post-AlbuBChE administration of 0.2, 1 or 5 mg/kg): not active
